Results on 68 sequences are retold here after the domain aggregation screens of Martell et al. (2025).

This data set is described as follows: soluble fraction after stress (log2 fold change); higher = more stays soluble; pooled small domains, quantitative proteomics. The following applies: stress: 50 degC. The method, boiled down: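 Pooled custom libraries of small protein domains were measured in a high-throughput format, with quantitative proteomics as the read-out. Each library was stressed at 50°C. Aggregation propensity is given as the base-two logarithm of the fold change in how much of each protein stays soluble after the stress. Higher values mean a larger share of the protein remains in solution.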
“HMEHIEVDTSHIAVGSKVKHKAFGLGEITDKGNTYVFVKFDGQAIPKKFQFPGAFTQGFLTK”: the “soluble fraction (log2)” value is 0.144.

Consider “HMEHPNNTELTQKLELGTELMQYGDYNYALKVFNNVIDSDPEWSEAWNKRATVYFLMSQFTDSLSDIDRV”, for which the “soluble fraction (log2)” value was 0.32. On to “HMEIDMQEGIKTIILMMKEHNITPSEAMKIYKSANGDIHYISKIYNHFKNKGADNFVALMIKMVKPGEFIE”, for which the “soluble fraction (log2)” value was -0.00191. For “HMEIEETKKNSRTKIPENFDYKLINGLSNEIRAKLELIRPIDLLQASRIDGMTPAALTLVHLWIKKYSG” the value was -0.338; for “HMEIEIPEELQNKFAEIPELKTAFESLTPGRQRAYVLYFSQPKQSKTREARIEKYIPHILDGKGMN”, 0.111.

Turning to “HMEIESAHAQVLGVREIAASGATQHWIAFRFSDGHQRELLATPSQADVIFRGQQGVVHFAGDRLTGWIPE”, the “soluble fraction (log2)” value was -0.191. Turning to “HMEIEYFDDEELDAYKGRKSDSYTDEEAAQFAEVLYTMRPSEVKDWTASLTLRGISMPDQIKDEAIMLME”, the “soluble fraction (log2)” value is -0.0466. As to “HMEIGELITLYRKQAGLTIDELSEKANVPKGTLNKIIGGITKAPTLETMRSIAYALGKKLADFDN”, the “soluble fraction (log2)” value was -0.34. The result for “HMEIHQVEFGGKVISFVLERKPVKNVNLHIKPDMTVMVSANEKVPLDFILGFVKQKAAWILKNIQFFEDV” reads -1.25; that for “HMEIKDQADAYGKMEPASAAAILSEMTNDLTLVAKILDSMQTSKSALILQNMKPTTAAQVTTKMTAMK”, 0.0219; that for “HMEILTRQLTHYLHLLPPAQQEVVRGVYLQDQTLQEIADRVQIPLGTVKSRLRLGLSKLREQIEQEHE”, -0.916. As for “HMEIMELPEYVVRSGSGLDAFREKWDLWDQGLMYDLKDKRAVFPIFIDGVMIDAVGRALAGAEPKWLRYTG”, the “soluble fraction (log2)” value is -0.165.

For “HMEINEDEIYEKIMIEIEQDNKVKSTWAKALSQSDGNKDKAESLYISMRFEELKYHQSYQKEELNLKDNQQ”, the “soluble fraction (log2)” value turned out to be 0.0911. For “HMEIPRYRLIGADGGRMVDLGEGQGAIPPVDVKRGMIDMPGLGKGYYTADGKSAVITNADGSKTRVL” the value was -0.034. “HMEIRNLMPILSHFLNENDIKLSRESVNLVLDRASGNRENLNNELKKIHDYSFSNKIIDFETIKKLTNLG”: the “soluble fraction (log2)” value is -0.194. The result for “HMEISLAETLRSSLHMILGWYQNTGDKKLLELIRLHLQAYVNTGNSLNPEMEEIRAALETLGEGKEAFRP” reads -0.999. The result for “HMEISNWLEEIGLSRYTETLSEFPLEDLVEFTDDDFKELGVLTPHRKKLLAAIATLNNDASSN” reads -0.255. For “HMEISTEVPLRGGTISEEALEALNRLPGVTASNIDGKSISVDVADNAELRVSDINQVLAVHSPDTRV”, the “soluble fraction (log2)” value came out at 0.209.

For “HMEITRDTVIQWLEAERRSQTWLSKQLGVSVQAVSNWLREKNPQTISASAQITIRALMEEDAAK”, the “soluble fraction (log2)” value is -0.42.

Take “HMEIVQVIAQNIQDLLDKHKISVSELSGYLGISRQTLTNYLKTTSTIDSVQLVKIADFFNIPAEYLLKDH”: the “soluble fraction (log2)” value is -0.968.

Take “HMEIVSTEEKIKRAAEQVFLLRGLEGARMQEIADVAGINKAMLHYYFRNKETLFDVILSEKL”: the “soluble fraction (log2)” value was -1.51. For the sequence “HMEIYEEDRTKVVNDLMDQILNRQITMDAAATKFINIRNSLGTTITKEDEQNLEMLRGLIFDKT”, the “soluble fraction (log2)” value was determined as 0.16. For the sequence “HMEIYIDGNKYVGELRNGKPNGRGTITYTGDGSKYVGEWKNGKRYGRGKMAYTNGTTKEGVWKDDEFLYAT”, the “soluble fraction (log2)” value came out at 0.0597. On to “HMEKAKVPSVIGMTEANAKRTIRDAGFKVGRVTRVESEAYDKGKVIEQQYEAGSELEKKKPISIVVSKGKK”, for which the “soluble fraction (log2)” value was -0.162.

With “HMEKALEVKYQKMVELLGDQSTFYVDEVKKIFPEMKKSSLYWNMSKLVEGGYLRRIRNGVYAFNE”, the “soluble fraction (log2)” value was -0.48. For “HMEKEKIKEALIGYFEAEPEEKFTVQELADKLKMNKAGQFNFVVQAVAQLEHDKVITLDDEGNFSLVRHE” the value was -0.623; for “HMEKERYDTGIGELNRVLGGGLVKGSLILISGDPGIGKSTLLLQTANNISKKYGKVLYVSGEESEEQIKIR”, -0.319; for “HMEKGWYKLGQDSYYVDDDGKIHKGWLELDGKKYYFDQEGKMVTGTVNIDGKDYTFNEKGELYVS”, 0.183. In the case of “HMEKIELKTVIPENLKKKRLDFALSELFPEHSRSRIQSWIKEGSVMVNSKNYRQRDLVDAGDVVEINTEQK”, the “soluble fraction (log2)” value was determined as 0.236. The result for “HMEKIIGQIQINQRGNGYVIVPNVKDDIFVKRENLNSARQGDRVAVQLLSRPNQKPEGLVQEVLERGQ” reads 0.461. Consider “HMEKILSYKALMNDAGKRIDQFLANNEKDISRTRIKSLILEGSLKLDNNIINDPSYKIKENDVFTLFIPEA”, for which the “soluble fraction (log2)” value was -0.429. As for “HMEKIRIQKYLSERGVMSRRAADSALAEGRIAVNGVTARPGDKIDPSSDTLTIDGRIVTTGTAP”, the “soluble fraction (log2)” value came to 0.00802. For “HMEKKEWVIYITGAVKKPGVYRIPEGARVYQALEAAGGFTPEADRDAVNLAAMLQDGAHIKFPAVGEEV”, the “soluble fraction (log2)” value is 0.117.

For the sequence “HMEKLNYSISNEEQGQRIDKYLSLMIEGKSRSFIQGLIDDKKVMANGKVIKSNYKLKNNDEITVEMPDPI”, the “soluble fraction (log2)” value is -0.155.

With “HMEKNILPDTSPEKQYEFATSFLKVGDYSTAERAFREFVINNSEHKLAGNAQYWYAETFRIRQ”, the “soluble fraction (log2)” value was -0.101. Turning to “HMEKSQIHLIHTRYVNPEQLVPILSMVIPAENIYVKSDSNLIIINGSSEMLREVESIVSKLDVPS”, the “soluble fraction (log2)” value came out at 0.0228. The result for “HMEKSSALRAKEAFMALYHDGKFKPGTKIPSESNMAELLGVSRETWRKALALLRGDGVLYSKHGSGTYLLE” reads 0.11. As for “HMEKTKLPNLVDFTYRQAEALLQTHGLKVGKVERVPDVGQTVIKAKYKGKVISWGTELNKGEKIDLVIGKG”, the “soluble fraction (log2)” value was determined as 0.189. Regarding “HMELADLPSAQIREILAYVYRAPLEKRRDPSIHWLLIAAHKLTLPLLDRLDPADARALGERYGADYP”, the “soluble fraction (log2)” value is 0.132. As to “HMELARLRPELDGNDIMRILGVPPGPVVGRAYTYLLELRINQGELGRERVTQLLLDWAAAEGISA”, the “soluble fraction (log2)” value was -2.02. For the sequence “HMELDMTFGEKIQKLRKESGLSQEELSYQLGVSRQAISKWERDSGYPETEKIVRMSKIFDVTLDYLLNE”, the “soluble fraction (log2)” value is -0.458.

For the sequence “HMELEDTYTKNLDASLARLDEYQASKGLTDEQVDEVINSLIADAENIIMGVFTPELIDSKLKAMNYDQDV”, the “soluble fraction (log2)” value stood at 0.156. The result for “HMELEFLTEKQKEALILAVNRGYYDVDSEVTLKRLADELGIARSTYGEHLKRAESEALKMVVSDLLRD” reads -0.382. The result for “HMELEIPGELIEAVRRLRDERQRMRLAGELAARQIQMHPERYTEASIDPVQTWDELRARILALA” reads -0.248; that for “HMELLSGTVEKVLTSGVLVKLPGGAIGFIPNSEMGTPRGTNHGKMFPAGTPLQVMVVEVNQDRGRITLSR”, -1.45.

On to “HMELLTNPLTGREVEVLTLMALGQTNHEIARQLYLATGTVKAHTSSIYRKLDVANRTEAVARARQLGIL”, for which the “soluble fraction (log2)” value was -1.1. For “HMELLTYREMDVLNLLDQRLTNKEIAHALGISTETVRQHTVNLFRKLNVDNRRQAIVVARSLGYIGTPT” the value was -1.2; for “HMELNESVLKALYEKFREMSGSKGFITEDEVIIQLEKENPDITPDQQAEIFKYLYDTPLQIY”, -0.127; for “HMELNFEGFYRFVRDELNVDLNAYKEKQLKRRIATVMKSSGALTLEDYSRLIANDEVIRNKFLDYITI”, -1.08.

As to “HMELPMGTQLPPERELAQQMQVSRAVVNGGLAELAQQGFLEVRPRQGTFVADYRRKGNLSTLIAIMEY”, the “soluble fraction (log2)” value came out at 0.0153. In the case of “HMELPPLQPGQPIDGRVEQQIRAGYYVVSVRGRGYEFQLPESARPGDLLRMVYLNDHPRLTFALLRIDNAN”, the “soluble fraction (log2)” value is -0.98. As for “HMELPVAVPHTELSPEALRGVVESFVLREGTDYGERDVPFEAKVAQVIRQLERGEARIMFDPVTQSVQIVT”, the “soluble fraction (log2)” value came out at 0.102. The result for “HMELRSPMPGLIIEIPVSKGDIIKKDQSLIILEAMKMENVLTSPINGKIADIKVNVQDTVEKNNLLITFEN” reads -0.164. The result for “HMELSESLENYLVVIYEAHLRNEIARIKDMTASLSVKHTSAIDAIKKLEDLGIVNYEKRGFVKLTQSGIEK” reads 0.0501; that for “HMELSPAELGERLKVARETANVTQDAGAKAAGIARTTLVAIEKGQRSARIDELQTLSRRYGVSVNSLLRR”, -0.135; that for “HMELSSRQAMIVDIVRKYEPITSEQIADKLNLTRSALRPDLAVLTMIGILEARPRVGYFFTGK”, 0.141. Regarding “HMELSTQERIQILLEILNQREIISFSQTLRKKEGKKGVVVTFLASLELAKDGYVTLVQNKSDQIYLRSN”, the “soluble fraction (log2)” value is -0.7. As for “HMELTDSLTENAKKLYSVLTTEPRHIDDLSEEAKLSSADTLAALTELELYSLVALSEGKHYYK”, the “soluble fraction (log2)” value worked out at 0.00954. The result for “HMELTKAELEVMQILWKLKKAFVGDILDRMVEPKPAYNTVSTVVRLLEKKGVVGHESFGKSHRYYPL” reads -3.22. Regarding “HMELTVPDFTNMSLEDAINLAEKRDVRLEVTDSVFVKRLGRGFIYSQNPVAGSKVKKGRRILITINAIN”, the “soluble fraction (log2)” value was -2.53. With “HMEMDPKELGRQVLAKRKEKGWSQEQLGKMAEISRNYVSQIERGEADSISIKIINRLAIALGVSPSDLGE”, the “soluble fraction (log2)” value is 0.0486. As to “HMEMKHKNSQIFQAIKLKHMGFTPTQISEELRVSRTTINHWLTKAQLKDVKWEDIRENSADELVKLLFG”, the “soluble fraction (log2)” value was -0.229. Take “HMEMNPLDIQNKAAELAQQWLQLPVGERQKQMAAVRTSNPNLHAMAKQKMEEMRSQAESQGRQSLSQP”: the “soluble fraction (log2)” value is 0.0359. For “HMEMTDKEEELMRIFWNHGPMFVREIVELYPEPRPHFNTLSTFVRNLEQKGFVSHEAVGGSFRYYAV” the value was -1.26. The result for “HMEMTEDEITKQFDAMEREAKKEIDTGADKRAFMYGVSRTAAGMAGKNPKYARFITDKAKEVIENIAKYK” reads 0.108; that for “HMENAEALLKKLSGVLSDYEYKMLMLYADGKTPRRIAQETGQSAKSVSNALFRARTKLKELYEDQ”, -0.331. Take “HMENEIVMPVQINGKKRGDLTIARDADQASIQKAVLELDFVKAALNGGSPKKVIVVPQRIVNVV”: the “soluble fraction (log2)” value amounted to 0.325. For the sequence “HMENFKVFMKAVQEVSPVPVRFDEISSGAKGYYSNTEKEIVIQNGMSESQTMKTGIHEVTHAMLHDRDF”, the “soluble fraction (log2)” value worked out at 0.113.
